Assay results as given in patent US8362216B2, “Method of detection using antibodies that specifically bind hedgehog-derived polypeptides” (The Johns Hopkins University School of Medicine, priority 1994, dated 2013).
Each block holds one molecule with its values, some of them ahead of it.

Experiments:
cholesterol biosynthesis = test: Sterol analysis by HPLC of COS-7 cells metabolically labelled with [3H]-mevalonic acid; assay type: cell-based, green monkey; settings: 28 mM jervine
Protocol: Given the structural similarities of these compounds to cholesterol and the similar teratogenic effects of cholesterol synthesis inhibitors upon the offspring of pregnant rats, a reasonable mechanism to consider for the effects of these plant sterol derivatives was the inhibition of cholesterol biosynthesis. Accordingly, COST cultured cells treated with jervine were tested for defects in cholesterol biosynthesis by labelling with [3H]-mevalonic acid and then extracting and analyzing radiolabeled, non-saponifiable lipids.
Metabolic labeling and sterol analysis was essentially as described (Popjak et al. J. Biol. Chem. 264: 630-6238.1989; Rilling et al. 1993 Arch. Biochem. Biophys. 301: 210-215.), with minor modifications. Briefly, COS-7 cells were plated at ˜35% confluence into two 60 mm dishes at 37° C. in 4 ml each of Dulbecco's modified Eagle's medium (DMEM) supplemented with 10% fetal bovine serum (FBS). After 24 hr of growth the medium in each dish was replaced with 2 ml fresh medium with 10% FBS; [^3H]-mevalonic acid (NEN #NET 176) brought to a specific activity of 0.8 Ci/mmol in a 1% solution of bovine serum albumin was added to this medium to a final concentration of […]. At this time, one dish received […] of a 4 mg/ml solution of jervine in ethanol (final concentration 28 mM jervine), and the other received […] of ethanol. After 24 hr further incubation, cells were washed in PBS, extracted with methanol, and 1 M potassium hydroxide (KOH) added to 10%. Following a three hour incubation at 60° C., the methanol/KOH mixture was extracted with diethyl ether, the extract dried down, resuspended in isopropanol, and subjected to reverse phase HPLC analysis by the method of Rodriguez and Parks (Methods in Enzymology 111: 37-51 1985).

[1] = tested on: pax-2 and pax-6 expression; test: Ectopic expression of twhh derivatives by mRNA injection into zebrafish embryos; assay type: in vivo; settings: mRNA injected embryos
Protocol: To gain insight into the potential roles of hh products in development, synthetic twhh and shh mRNA was injected into 1-8 cell embryos. This technique yields a mosaic but fairly uniform pattern of expression, as determined for the control mRNA encoding β-galactosidase (not shown). Uniformity of expression is in good agreement with fate mapping studies of the early zebrafish embryo (Kimmel & Warga, supra; Warga & Kimmel, supra; Heide, et al., Science, 265:517-520, 1994), which indicate that blastomeres undergo extensive cell mixing during the cleavages pnor to gastrulation.
Ectopic hh alters the expression of par-2, pax-6, and F-spondin. Zebrafish embryos were injected at the 1-8 cell stage with twhh or shh RNA and the pattern of pax-2, pax-6, or F-spondin expression was examined by whole mount in situ hybridization. […] At embryo stage, the anterior-posterior axis of the optic vesicle corresponds to the future proximal-distal axis of the eye. During the next hour of development, the posterior edge of the optic vesicle will separate from the diencephalon (Schmitt and Dowling, Comp. Neur., 344:532-542. 1994).
17(a) Cartoons of various twhh open reading frames. SS (shaded) is the predicted N-terminal signal sequence for secretion of these proteins and encompasses the first 27 amino acids of each open reading frame. The arrow indicates the predicted internal site of auto-proteolytic cleavage. Amino acid residue numbers are according to FIG. 13b. The filled triangle denotes the normal termination codon for the twhh open reading frame. Construct UHA contains a mutation that blocks auto-proteolysis (the histidine at residue 273 is changed to an alanine; see Lee, J. J., et al, supra.). Construct U356HA contains a stop codon in place of amino acid residue 357 as well as the H273A mutation in UHA. Construct N encodes just the first 200 amino acids of twhh. Construct C has had the codons for residues 31-197 deleted. […] Constructs were translated in vitro in the presence of ^35S methionine and analyzed by autoradiography after SDS-PAGE. The protein products are shown schematically to the left. […]

Hh autoprocessing = test: In vitro autocleavage assays of site-directed mutant His6Hh-C proteins; settings: 6 hours at 30° C.
auto-proteolysis = test: In vitro translation of wild-type and mutant Hh proteins (mapping of auto-proteolysis); assay type: biochemical, Drosophila; zebrafish
wg expression = test: Embryonic induction of wg expression after heat shock of hshh / hshh H329A embryos (in situ hybridization)
[2] = tested on: wg and dpp expression in imaginal discs; test: Signaling in imaginal discs of thermally cycled larvae (wg-lacZ / dpp-lacZ, X-gal staining); settings: thermal cycling of larvae
[3] = Heparin agarose binding of in vitro translated Hh protein species; parameters: species or system Drosophila; settings: wash with 0.1% Triton X-100 and 150 mM NaCl
Protocol: In vitro translations were performed with the use of the TNT coupled transcription-translation system (Promega). ^35S methionine (DuPont NEN) was used for detection by autoradiography. […] Samples were incubated at 4° C. for four hours with gentle rocking. After pelleting the beads, supernatants in some samples were analyzed (lanes 2 and 4). The beads were then washed 5 times with chilled HBB and samples (lanes 3 and 5) were subsequently eluted at 80° C. for 10 minutes in SDS PAGE loading buffer (F. M. Ausubel et al., supra).
One possible explanation for this differential behavior might be association of the N fragment with extracellular matrix proteins on the surfaces of the S2 cells. Accordingly, the relative affinity of these two proteins for heparin agarose was examined, since heparin binding is a common property of proteins that associate with the extracellular matrix. Given the obvious difficulty in obtaining soluble N from cultured cells, in vitro translation in the presence of microsomes was used to generate soluble, labelled N and C. […] Furthermore, N but not C was retained upon the heparin agarose beads upon extensive washing with a solution that contains 0.1% Triton X-100 and 150 mM NaCl; in contrast, neither fragment was retained by unmodified agarose. […]

Molecule: CC1=C2C(=O)[C@H]3[C@@H](CC=C4C[C@@H](O)CC[C@@]43C)[C@@H]2CC[C@]12O[C@@H]1C[C@H](C)CN[C@H]1[C@H]2C [jervine]
Accumulation of another radiolabeled sterol (tentatively zymosterol) (cholesterol biosynthesis; COS 7 cells, 24 hr): another radiolabeled sterol was found to accumulate | Radiolabeled cholesterol levels (cholesterol biosynthesis; COS 7 cells, 24 hr): reduced | Cholesterol biosynthesis in cultured cells (cholesterol biosynthesis; COS-7 cells): inhibits cholesterol biosynthesis

B1: UHA: twhh with H273A mutation that blocks auto-proteolysis (protein, UniProt Q90419 27-416, looked up, variant H273A)
Tiggy-winkle hedgehog protein: CGPGRGYGKRRHPKKLTPLAYKQFIPNVAEKTLGASGKYEGKITRNSERFKELIPNYNPDIIFKDEENTNADRLMTKRCKDKLNSLAISVMNHWPGVKLRVTEGWDEDGHHLEESLHYEGRAVDITTSDRDKSKYGMLSRLAVEAGFDWVYYESKAHIHCSVKAENSVAAKSGGCFPGSGTVTLGDGTRKPIKDLKVGDRVLAADEKGNVLISDFIMFIDHDPTTRRQFIVIETSEPFTKLTLTAAALVFVGNSSAASGITATFASNVKPGDTVLVWEDTCESLKSVTVKRIYTEEHEGSFAPVTAHGTIIVDQVLASCYAVIENHKWAHWAFAPVRLCHKLMTWLFPARESNVNFQEDGIHWYSNMLFHIGSWLLDRDSFHPLGILHLS
Ectopic activation (induction) of pax-2 in the developing eye [1]: only somewhat less active than C in inducing pax-2 | Repression of pax-6 [1]: not able to repress pax6 efficiently

B2: U356HA: twhh with stop codon in place of residue 357 and the H273A mutation (protein, UniProt Q90419 27-416, looked up, variant H273A)
Tiggy-winkle hedgehog protein: CGPGRGYGKRRHPKKLTPLAYKQFIPNVAEKTLGASGKYEGKITRNSERFKELIPNYNPDIIFKDEENTNADRLMTKRCKDKLNSLAISVMNHWPGVKLRVTEGWDEDGHHLEESLHYEGRAVDITTSDRDKSKYGMLSRLAVEAGFDWVYYESKAHIHCSVKAENSVAAKSGGCFPGSGTVTLGDGTRKPIKDLKVGDRVLAADEKGNVLISDFIMFIDHDPTTRRQFIVIETSEPFTKLTLTAAALVFVGNSSAASGITATFASNVKPGDTVLVWEDTCESLKSVTVKRIYTEEHEGSFAPVTAHGTIIVDQVLASCYAVIENHKWAHWAFAPVRLCHKLMTWLFPARESNVNFQEDGIHWYSNMLFHIGSWLLDRDSFHPLGILHLS
modifications: truncated after residue 356
notes: twhh with stop codon in place of residue 357 and the H273A mutation
Repression of pax-6 [1]: activities not significantly different from N

B3: H329A: Drosophila Hh with His-329 to alanine; in vitro translated full length and His6Hh-C25 context (protein)
chain: CGPGRGLGRHRARNLYPLVLKQTIPNLSEYTNSASGPLEGVIRRDSPKFKDLVPNYNRDILFRDEEGTGADRLMSKRCKEKLNVLAYSVMNEWPGIRLLVTESWDEDYHHGQESLHYEGRAVTIATSDRDQSKYGMLARLAVEAGFDWVSYVSRRHIYCSVKSDSSISSHVHGCFTPESTALLESGVRKPLGELSIGDRVLSMTANGQAVYSEVILFMDRNLEQMQNFVQLHTDGGAVLTVTPAALVSVWQPESQKLTFVFADRIEEKNQVLVRDVETGELRPQRVVKVGSVRSKGVVAPLTREGTIVVNSVAASCYAVINSQSLAHWGLAPMRLLSTLEAWLPAKEQLHSSPKVVSSAQQQNGIHWYANALYKVKDYVLPQSWRHD
Cholesterol-stimulated autocleavage (cholesterol transfer) (Hh autoprocessing; 350 μM cholesterol/1 mM DTT): inactive | DTT-stimulated autocleavage (thioester formation) (Hh autoprocessing; 50 mM DTT): inactive | Auto-proteolysis (processing) of in vitro translated protein (auto-proteolysis): blocked or severely inhibited

B4: hshh H329A: heat shock-inducible hh with H329A mutation blocking auto-proteolysis (protein)
chain: CGPGRGLGRHRARNLYPLVLKQTIPNLSEYTNSASGPLEGVIRRDSPKFKDLVPNYNRDILFRDEEGTGADRLMSKRCKEKLNVLAYSVMNEWPGIRLLVTESWDEDYHHGQESLHYEGRAVTIATSDRDQSKYGMLARLAVEAGFDWVSYVSRRHIYCSVKSDSSISSHVHGCFTPESTALLESGVRKPLGELSIGDRVLSMTANGQAVYSEVILFMDRNLEQMQNFVQLHTDGGAVLTVTPAALVSVWQPESQKLTFVFADRIEEKNQVLVRDVETGELRPQRVVKVGSVRSKGVVAPLTREGTIVVNSVAASCYAVINSQSLAHWGLAPMRLLSTLEAWLPAKEQLHSSPKVVSSAQQQNGIHWYANALYKVKDYVLPQSWRHD
Expansion of wg expression beyond wild-type controls, average number of cell diameters ± standard deviation (wg expression; minutes of heat shock: 10): 0.7 ± 0.5 cell diameters | Expansion of wg expression beyond wild-type controls, average number of cell diameters ± standard deviation (wg expression; minutes of heat shock: 10/10): 1.1 ± 0.4 (145) cell diameters | Expansion of wg expression beyond wild-type controls, average number of cell diameters ± standard deviation (wg expression; minutes of heat shock: 30): 0.9 ± 0.4 (111) cell diameters | Expansion of wg expression beyond wild-type controls, average number of cell diameters ± standard deviation (wg expression; minutes of heat shock: 30/30): 1.9 ± 0.5 (93) cell diameters | Expansion of dpp expression in the eye-antennal disc [2]: did not induce expansion of dpp expression | wg and dpp expression patterns in the leg disc [2]: produced little if any detectable difference in these patterns of expression

Binding to heparin agarose [3]: not bound effectively by heparin agarose
B5: C-terminal fragment: Drosophila hh 25 kD C-terminal fragment (protein)
chain: CFTPESTALLESGVRKPLGELSIGDRVLSMTANGQAVYSEVILFMDRNLEQMQNFVQLHTDGGAVLTVTPAHLVSVWQPESQKLTFVFADRIEEKNQVLVRDVETGELRPQRVVKVGSVRSKGVVAPLTREGTIVVNSVAASCYAVINSQSLAHWGLAPMRLLSTLEAWLPAKEQLHSSPKVVSSAQQQNGIHWYANALYKVKDYVLPQSWRHD
